Target: the molecule itself
Assay: crystal structure; X-ray, molecular replacement, 1.35 Å; sitting-drop vapor diffusion at 290 K, protein in 20 mM HEPES pH 7.0, 300 mM NaCl, 5% glycerol, 1 mM TCEP; reservoir 100 mM Tris pH 5.5, 25% PEG 3350, 200 mM ammonium acetate

B1: hypothetical protein from Giardia lamblia (GilaA.00312.a) (natural protein)
chain: GPGSMIYGILSKNLGMPTPTFLVCPDVVKFENVGQIAVVNGMVYLGGSVGIDKSGTLHKGLEEQTRQTFDNIRKCLEYANSGLDYIVSLNIFLSTSLSDSEEARFNELYREVFCVPATRPCRCCVRAQLQEGLLVEVVNVVAAQK
notes: hypothetical protein of Giardia lamblia GL50803_14299, 141 amino acids, amino acids 1-141 of UniProt A8BD71; Homotrimer in the crystal structure (PDB 3i3f); also called hypothetical G. lamblia protein; GL50803_14299; source: E. coli BL21(DE3)R3 Rosetta, purified (IMAC, 3C cleavage of the His tag, reverse IMAC, SEC); not shown: 6xHis, N-terminal, cleaved
B1 was tested, and the “stoichiometry N” value was 3.
